In paper PMC5378893 (Scientific Reports, 2015):

Molecular target: T1, extracellular domain (ECD) of human epidermal growth factor receptor 2 (HER2) (Homo sapiens, UniProt P04626)
T1 construct: human epidermal growth factor receptor 2 (HER2), extracellular domain (domains I-IV); also called HER2/ECD
Assay: competition binding assay; competition of S90 scFvs with IgGs (six mouse IgGs, four positive control IgGs) for binding to HER2/ECD; procedure in the Supplemental Experimental Procedures
Conditions: not given

| Binder | binding result |
| --- | --- |
| A21 (positive control IgG) (antibody, V domains shown, Positive control IgG; also called Antibody A21) VH: EVQLQQSGPEVVKTGASVKISCKASGYSFTGYFINWVKKNSGKSPEWIGHISSSYATSTYNQKFKNKAAFTVDTSSSTAFMQLNSLTSEDSAVYYCVRSGNYEEYAMDYWGQGTSVTVSS VL: DIVLTQTPSSLPVSVGEKVTMTCKSSQTLLYSNNQKNYLAWYQQKPGQSPKLLISWAFTRKSGVPDRFTGSGSGTDFTLTIGSVKAEDLAVYYCQQYSNYPWTFGGGTRLEIK | binds |
| Fab37 (positive control IgG) (antibody, V domains shown) VH: EVQLVESGGGLVQPGGSLRLSCAASGFSIWWSWIHWVRQAPGKGLEWVASISPSSGWTSYADSVKGRFTISADTSKNTAYLQMNSLRAEDTAVYYCARWWSSAMDYWGQGTLVTVSS VL: DIQMTQSPSSLSASVGDRVTITCRASQSVSSAVAWYQQKPGKAPKLLIYSASSLYSGVPSRFSGSRSGTDFTLTISSLQPEDFATYYCQQWWWWPSTFGQGTKVEIK | binds |

Molecular target: T2, extracellular domain (ECD) of human epidermal growth factor receptor 2 (HER2) (Homo sapiens, UniProt P04626)
T2 construct: human epidermal growth factor receptor 2 (HER2), extracellular domain; also called HER2/ECD
Assay: SPR; BIAcore T200; HER2/ECD immobilised on a CM5 chip by amine coupling to 1000 RU; IgG flowed in PBST (0.05% Tween 20) at 30 uL/min; regeneration 10 mM glycine pH 1.5; global fit to a 1:1 binding model
Conditions: both partners purified

| Binder | Kd [nM] | koff [s⁻¹] | kon [M⁻¹ s⁻¹] |
| --- | --- | --- | --- |
| GH2-40 IgG (antibody, V domains shown, source: HEK293-F, transient transfection, purified (Protein A, Superdex 200)) VH: EVQLVESGGGLVQPGGSLRLSCAASGFTINSWGIHWVRQAPGKGLEWVAWIGPYWGFTSYADSVKGRFTISADTSKNTAYLQMNSLRAEDTAVYYCARFDGHFDGVMDYWGQGTLVTVSS VL: DIQMTQSPSSLSASVGDRVTITCRASQDVNNGVAWYQQKPGKAPKLLISGTPWLYSGVPSRFSGSGSGTDFTLTISSLQPEDFATYYCQQYFDWPLTFGQGTKVEIK | 3.04 | 0.000217 | 71200 |
| GH2-42 IgG (antibody, V domains shown, source: HEK293-F, transient transfection, purified (Protein A, Superdex 200)) VH: EVQLVESGGGLVQPGGSLRLSCAASGFTISNWGIHWVRQAPGKGLEWVAGIGPYGGYTSYADSVKGRFTISADTSKNTAYLQMNSLRAEDTAVYYCARFGFYFDGIMDYWGQGTLVTVSS VL: DIQMTQSPSSLSASVGDRVTITCRASQDVSSGVAWYQQKPGKAPKLLISGPTGLYSGVPSRFSGSGSGTDFTLTISSLQPEDFATYYCQQYYDWPLTFGQGTKVKRG | 0.169 | 0.000235 | 1.39e+06 |
| GH2-54 IgG (antibody, V domains shown, source: HEK293-F, transient transfection, purified (Protein A, Superdex 200)) VH: EVQLVESGGGLVQPGGSLRLSCAASGFTISDGSIHWVRQAPGKGLEWVAFIGPYWGFTYYADSVKGRFTISADTSKNTAYLQMNSLRAEDTAVYYCARFVNWVHYGMDYWGQGTLVTVSS VL: DIQMTQSPSSLSASVGDRVTITCRASQDVNDNVAWYQQKPGKAPKLLIFGSSSLYSGVPSRFSGSGSGTDFTLTISSLQPEDFATYYCQQGWNYPFTFGQGTKVEIK | 37.9 | 0.0128 | 339000 |
| GH2-59 IgG (antibody, V domains shown, source: HEK293-F, transient transfection, purified (Protein A, Superdex 200)) VH: EVQLVESGGGLVRPGGSLRLSCAASGFTIGDWYIHWVRQAPGKGLEWVAGIGPYWGYTSYADSVKGRFTISADTSKNTAYLQMNSLRAEDTAVYYCARFVGDVWHDMDYWGQGTLVAVSS VL: DIQMTQSPSSLSASVGDRVTITCRASQDVSGGVAWYQQKPGKAPKLLISWTGSLYSGVPSRFSGSGSGTDFTLTISSLQPEDFATYYCQQWSDFPITFGQGTKVEIK | 6.02 | 0.000288 | 47800 |
| GH2-60 IgG (antibody, V domains shown, source: HEK293-F, transient transfection, purified (Protein A, Superdex 200)) VH: EVQLVESGGGLVQPGGSLRLSCAASGFTISDFGIHWVRQAPGKGLEWVAGIWPYWGYTYYADSVKGRFTISADTSKNTAYLQMNSLRAEDTAVYYCARFWNIYWNVMDYWGQGTLVTVSS VL: DIQMTQGPSSLSASVGDRVTITCRASQDVGSWVAWYQQKPGKAPKLLISSPPSLYSGVPSRFSGSGSGTDFTLTISSLQPEDFATYYCQQGFDSPITFGQGTKVEIK | 1.53 | 0.00556 | 3.64e+06 |
| GH2-7 IgG (antibody, V domains shown, source: HEK293-F, transient transfection, purified (Protein A, Superdex 200)) VH: EVQLVESGGGLVQPGGSLRLSCAASGFTIDDYFIHWVRQAPGKGLEWVAGIGPSWGYTFYADSVKGRFTISADTSKNTAYLQMNSLRAEDTAVYYCARFGHNFVNGMDYWGQGTLVTVSS VL: DIQMTQSPSSLSASVGDRVTITCRASQDVSGWVAWYQQKPGKAPKLLISGTAGLYSGVPSRFSGSGSGTDFTLTISSLQPEDFATYYCQQYYDFPVTFGQGTKVEIK | 9.84 | 0.0608 | 6.18e+06 |
| GH2-61 IgG (antibody, V domains shown, source: HEK293-F, transient transfection, purified (Protein A, Superdex 200)) VH: EVQLVESGGGLVQPGGSLRLSCAASGFTINNWGIHWVRQAPGKGLEWVAGIWPYGGYTYYADSVKGRFTISADTSKNTAYLQMNSLRAEDTAVYYCARFYNHHGGVMDYWGQGTLVTVSS VL: DIQMTQSPSSLSASVGDRVTITCRASQDVGSNVAWYQQKPGKAPKLLISWSTSLYSGVPSRFSGSGSGTDFTLTISSLQPEDFATYYCQQYGGWPITFGQGTKVEIK | 0.27 | 0.000104 | 387000 |
| GH2-65 IgG (antibody, V domains shown, source: HEK293-F, transient transfection, purified (Protein A, Superdex 200)) VH: EVQLVESGGGLVQPGGSLRLSCAASGFTIDDWGIHWVRQAPGKGLEWVAWIWPYWGYTFYADSVKGRFTISADTSKNTAYLQMNSLRAEDTAVYYCARFLDWNNNWMDYWGQGTLVTVSS VL: DIQMTQSPSSLSASVGDRVTITCRASQDVSGWVAWYQQKPGKAPKLLISSASFLYSGVPSRFSGSGSGTDFTLTISSLQPEDFATYYCQQYYDFPVTFGQGTKVEIK | 31.8 | 0.0111 | 350000 |
| GH2-66 IgG (antibody, V domains shown, source: HEK293-F, transient transfection, purified (Protein A, Superdex 200)) VH: EVQLVESGGGLVQPGGSLRLSCAASGFTIGNWGIHWVRQAPGKGLEWVAYIWPYWGFTYYADSVKGRFTISADTSKNTAYLQMNSLRAEDTAVYYCARFLDWNLLWMDYWGQGTLVTVSS VL: DIQMTQSPSSLSASVGDRVTITCRASQDVYSYVAWYQQKPGKAPKLLISYASGLYSGVPSRFSGSGSGTDFTLTISSLQPEDFATYYCQQYYNSPITFGQGTKVEIK | 54.5 | 0.328 | 6.03e+06 |
| GH2-72 IgG (antibody, V domains shown, source: HEK293-F, transient transfection, purified (Protein A, Superdex 200)) VH: EVQLVESGGGLVQPGGSLRLSCAASGFTISNGGIHWVRQAPGKGLEWVAYIWPSGGYTFYADSVKGRFTISADTSKNTAYLQMNSLRAEDTAVYYCARFFNNDWIGMDYWGQGTLVTVSS VL: DIQMTQSPSSLSASVGDRVTITCRASQDVGYFVAWYQQKPGKAPKLLISGTTWLYSGVPSRFSGSGSGTDFTLTISSLQPEDFATYYCQQYSNWPLTFGQGTKVEIK | 11.9 | 10.9 | 9.15e+08 |
| GH2-75 IgG (antibody, V domains shown, source: HEK293-F, transient transfection, purified (Protein A, Superdex 200)) VH: EVQLVESGGGLVQPGGSLRLSCAASGSTIGNSGIHWVRQAPGKGLEWVAYIGPYGGYTSYADSVKGRFTISADTSKNTAYLQMNSLRAEDTAVYYCARFDDYHWDGMDYWGQGTLVTVSS VL: DIQMTQSPSSLSASVGDRVIITCRASQDVSGYVAWYQQKPGKAPKLLIYSSGVPSRFSGSGSGTDFTLTISSLQPEDFATYYCQQYYNWPVTFGQGTKVEIK | 0.177 | 0.000149 | 840000 |
| GH2-78 IgG (antibody, V domains shown, source: HEK293-F, transient transfection, purified (Protein A, Superdex 200)) VH: EVQLVESGGGLVQPGGSLRLSCAASGFTINNWGIHWVRQAPGKGLEWVAGIGPYGGYTSYADSVKGRFTISADTSKNTAYLQMNSLRAEDTAVYYCARFGVIIDGIMDYWGQGTLVTVSS VL: DIQMTQSPSSLSASVGDRVTITCRASQDVNNSVAWYQQKPGKAPKLLISWPTGLYSGVPSRFSGSGSGTDFTLTISSLQPEDFATYYCQQYYSWPITFGQGTKVEIK | 49.4 | 0.00163 | 33000 |
| GH2-81 IgG (antibody, V domains shown, source: HEK293-F, transient transfection, purified (Protein A, Superdex 200)) VH: EVQLVESGGGLVQPGGSLRLSCAASGFTINDYGIHWVRQAPGKGLEWVAGIGPFGGYTSYADSVKGRFTISADTSKNTAYLQMNSLRAEDTAVYYCARFGVLFDGVMDYWGQGTLVTVSS VL: DIQMTQSPSSLSASVGDRVTITCRASQDVNDGVAWYQQKPGKAPKLLISFTTGLYSGVPSRFSGSGSGTDFTLTISSLQPEDFATYYCQQYYNWPITFGQGTKVEIK | 13.4 | 0.0131 | 975000 |
| GH2-87 IgG (antibody, V domains shown, source: HEK293-F, transient transfection, purified (Protein A, Superdex 200)) VH: EVQLVESGGGLVQPGGSLRLSCAASGFTISSYGIHWVRQAPGKGLEWVAGIGPFGGFTSYADSVKGRFTISADTSKNTAYLQMNSLRAEDTAVYYCARFLNIHLGWMDYWGQGTLVTVSS VL: DIQMTQSPSSLSASVGDRVTITCRASQDVNNSVAWYQQKPGKAPKLLIFGTRYLYSGVPSRFSGSGSGTDFTLTISSLQPEDFATYYCQQYYNYPLTFGQGTKVEIK | 13.3 | 0.00525 | 395000 |
| GH2-91 IgG (antibody, V domains shown, source: HEK293-F, transient transfection, purified (Protein A, Superdex 200)) VH: EVQLVESGGGLVQPGGSLRLSCAASGFTINNFGIHWVRQAPGKGLEWVASIGPFWGYTSYADSVKGRFTISADTSKNTAYLQMNSLRAEDTAVYYCARFGNDYDGVMDYWGQGTLVTVSS VL: DIQMTQSPSSLSASVGDRVTITCRASHDVGWGVAWYQQKPGKAPKLLISWPTYLYSGVPSRFSGSGSGTDFTLTISSLQPEDFATYYCQQYFSYPITFGQGTKVEIK | 2.47 | 0.00679 | 2.75e+06 |
